{"source": "paper PMC2115427", "target": "urokinase plasminogen activator receptor (uPAR) of U937 cells (human (endogenous in U937)) (UniProt Q03405)", "sequence (Q03405 23-305)": "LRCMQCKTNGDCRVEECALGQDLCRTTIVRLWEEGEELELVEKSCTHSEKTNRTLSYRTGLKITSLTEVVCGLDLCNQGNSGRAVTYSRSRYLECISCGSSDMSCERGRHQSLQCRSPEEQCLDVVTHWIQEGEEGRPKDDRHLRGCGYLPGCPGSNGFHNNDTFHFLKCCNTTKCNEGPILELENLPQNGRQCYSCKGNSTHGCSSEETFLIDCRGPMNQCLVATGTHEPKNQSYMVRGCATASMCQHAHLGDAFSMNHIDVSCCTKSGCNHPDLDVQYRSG", "data": [{"substance": "human urinary urokinase of high Mr (uPA) (enzyme)", "values": [{"measurement": "half-life of dissociation", "value": 3, "unit": "h"}]}]}
